According to the Immune Epitope Database (IEDB):
pKd: −log10 of the molar value.

Experiments:
[1] = biological target: HLA-A*29:02; assay: IEDB peptide-MHC binding, purified MHC/competitive/radioactivity; filed as Kd, often an IC50 or EC50 that approximates it; ≥ and ≤ were set here for values at or beyond the usual limits of such assays
[2] = biological target: HLA-A*30:02; assay: as above
[3] = biological target: HLA-A*23:01; assay: as above
[4] = biological target: HLA-A*26:01; assay: as above
[5] = biological target: HLA-A*01:01; assay: as above
[6] = biological target: HLA-A*24:02; assay: as above
[7] = biological target: HLA-B*53:01; assay: as above
[8] = biological target: HLA-A*68:01; assay: as above; settings: source organism: SARS coronavirus Tor2
[9] = biological target: HLA-A*33:01; assay: as above; settings: source organism: SARS coronavirus Tor2
[10] = biological target: HLA-A*31:01; assay: IEDB peptide-MHC binding, purified MHC/direct/fluorescence; filed as Kd, often an IC50 or EC50 that approximates it; ≥ and ≤ were set here for values at or beyond the usual limits of such assays
[11] = biological target: HLA-A*26:01; assay: as above; settings: source organism: Mycobacterium tuberculosis
[12] = biological target: HLA-B*40:01; assay: IEDB peptide-MHC binding, purified MHC/competitive/radioactivity; filed as Kd, often an IC50 or EC50 that approximates it; ≥ and ≤ were set here for values at or beyond the usual limits of such assays
[13] = biological target: HLA-B*44:03; assay: as above
[14] = biological target: HLA-B*44:02; assay: as above
[15] = biological target: HLA-A*03:01; assay: IEDB peptide-MHC binding, purified MHC/direct/fluorescence; filed as Kd, often an IC50 or EC50 that approximates it; ≥ and ≤ were set here for values at or beyond the usual limits of such assays; settings: source organism: Shigella sonnei Ss046
[16] = biological target: HLA-B*15:01; assay: as above; settings: source organism: Mammarenavirus lassaense
[17] = source organism: SARS coronavirus Tor2
[18] = source organism: Dengue virus 4 Philippines/H241/1956
[19] = source organism: Dengue virus 1 Brazil/97-11/1997
[20] = source organism: Mammarenavirus machupoense
[21] = source organism: Mammarenavirus choriomeningitidis
[22] = source organism: Triticum aestivum
[23] = source organism: Dengue virus 2 Jamaica/1409/1983
[24] = source organism: Dengue virus 3 Martinique/1243/1999
[25] = source organism: Mammarenavirus brazilense
[26] = source organism: Lymphocytic choriomeningitis virus (strain Armstrong)
[27] = source organism: Mammarenavirus lassaense

**Q.** How did the pKd [1, 17] turn out when LTALRLCAY was run?
**A.** 6.87

**Q.** And the pKd [2, 17]?
**A.** 7.26

**Q.** And the pKd [3, 17]?
**A.** 5.15

**Q.** And the pKd [4, 17]?
**A.** 6.02

**Q.** What about the pKd [5, 17] of the same sequence?
**A.** 8.10

**Q.** What about the pKd [6, 17] of the same sequence?
**A.** ≤ 4.45

**Q.** What does the source list for LMANLAPHL?
**A.** pKd [1, 17]: 5.44; pKd [2, 17]: 4.92; pKd [3, 17]: 4.93; pKd [4, 17]: ≤ 4.11; pKd [5, 17]: 5.22; pKd [6, 17]: ≤ 4.51

**Q.** How did the pKd ([6]; source organism: Dengue virus 1 Nauru/West Pac/1974) turn out when SYTQVCDHRL was run?
**A.** 6.03

**Q.** PVNDLKYSW was tested. Which pKd [7, 18] did it give?
**A.** 6.11

**Q.** With PATLFVWYF as the sequence, how does the pKd [7, 19] read?
**A.** 5.72

**Q.** LSSGEPHCA was tested. Which pKd [1, 20] did it give?
**A.** ≤ 4.10

**Q.** And the pKd [2, 20]?
**A.** 5.34

**Q.** What about the pKd [3, 20] of the same sequence?
**A.** ≤ 4.32

**Q.** What about the pKd [4, 20] of the same sequence?
**A.** ≤ 4.11

**Q.** And the pKd [5, 20]?
**A.** 5.36

**Q.** What about the pKd [6, 20] of the same sequence?
**A.** ≤ 4.11

**Q.** With AVLQSGFRK as the sequence, how does the pKd [8] read?
**A.** 6.41

**Q.** What about the pKd [9] of the same sequence?
**A.** ≤ 4.11

**Q.** What about the pKd ([10]; source organism: SARS-CoV1) of the same sequence?
**A.** 6.73

**Q.** EVSARIAAL was tested. Which pKd [11] did it give?
**A.** 7.91

**Q.** With QKATLTEGVY as the sequence, how does the pKd [2, 18] read?
**A.** 7.81

**Q.** How did the pKd [1, 17] turn out when AWEILKFLI was run?
**A.** 5.39

**Q.** And the pKd [2, 17]?
**A.** ≤ 4.60

**Q.** And the pKd [3, 17]?
**A.** 5.44

**Q.** What about the pKd [4, 17] of the same sequence?
**A.** ≤ 4.24

**Q.** What about the pKd [5, 17] of the same sequence?
**A.** ≤ 4.11

**Q.** And the pKd [6, 17]?
**A.** 5.53

**Q.** What does the source list for WCSQTNYQY?
**A.** pKd [1, 21]: 6.69; pKd [2, 21]: 6.13; pKd [3, 21]: ≤ 4.11; pKd [4, 21]: ≤ 4.11; pKd [5, 21]: 6.02; pKd [6, 21]: ≤ 4.11

**Q.** KEFASGRKSI was tested. Which pKd [12, 18] did it give?
**A.** 6.95

**Q.** With QYPLGQGSF as the sequence, how does the pKd [1, 22] read?
**A.** ≤ 4.64

**Q.** And the pKd [2, 22]?
**A.** 5.84

**Q.** What about the pKd [3, 22] of the same sequence?
**A.** 5.09

**Q.** And the pKd [4, 22]?
**A.** ≤ 4.11

**Q.** What about the pKd [5, 22] of the same sequence?
**A.** ≤ 4.15

**Q.** What about the pKd [6, 22] of the same sequence?
**A.** 5.84

**Q.** How did the pKd [5, 23] turn out when LTDGEERVIL was run?
**A.** ≤ 4.63

**Q.** QPSKGWHDW was tested. Which pKd [7, 24] did it give?
**A.** 6.68

**Q.** How did the pKd [13, 19] turn out when GEKALKLSW was run?
**A.** 7.40

**Q.** What about the pKd [14, 19] of the same sequence?
**A.** 7.40

**Q.** What does the source list for RPVLFRYTR?
**A.** pKd ([10]; source organism: Shigella sonnei Ss046): 6.38; pKd [15]: ≤ 4.70

**Q.** How did the pKd [1, 25] turn out when VTDVTLLMA was run?
**A.** ≤ 4.63

**Q.** What about the pKd [2, 25] of the same sequence?
**A.** 6.37

**Q.** What about the pKd [3, 25] of the same sequence?
**A.** 4.74

**Q.** And the pKd [4, 25]?
**A.** ≤ 4.11

**Q.** What about the pKd [5, 25] of the same sequence?
**A.** 8.06

**Q.** What about the pKd [6, 25] of the same sequence?
**A.** ≤ 4.11

**Q.** With SYLAGAGLAF as the sequence, how does the pKd [3, 19] read?
**A.** 8.36

**Q.** What about the pKd [6, 19] of the same sequence?
**A.** 7.15

**Q.** How did the pKd [12, 19] turn out when EERDDTLTIL was run?
**A.** 7.66

**Q.** What does the source list for SLSLISHVV?
**A.** pKd [1, 26]: ≤ 4.22; pKd [2, 26]: 5.84; pKd [3, 26]: ≤ 4.11; pKd [4, 26]: ≤ 4.11; pKd [5, 26]: ≤ 4.35; pKd [6, 26]: ≤ 4.11

**Q.** What does the source list for AECPNTNRAW?
**A.** pKd [13, 23]: 7.28; pKd [14, 23]: 7.45

**Q.** With KEENMVKSLV as the sequence, how does the pKd [12, 24] read?
**A.** 6.61

**Q.** How did the pKd [7, 19] turn out when IPQWEPSKGW was run?
**A.** 7.05

**Q.** How did the pKd [13, 18] turn out when HERGRPLLF was run?
**A.** 6.00

**Q.** With MIDKTPVHSW as the sequence, how does the pKd ([7]; source organism: Dengue virus 4 Thailand/0348/1991) read?
**A.** 6.14

**Q.** Which results are given for ESQMLIPKAY?
**A.** pKd [2, 18]: 8.05; pKd [5, 18]: ≤ 4.41

**Q.** LIDGISLGL was tested. Which pKd ([5]; source organism: Dengue virus 4 Dominica/814669/1981) did it give?
**A.** 4.98

**Q.** How did the pKd [1, 27] turn out when IQNKLSSTF was run?
**A.** ≤ 4.46

**Q.** And the pKd [3, 27]?
**A.** 6.46

**Q.** And the pKd [6, 27]?
**A.** 6.57

**Q.** What about the pKd [16] of the same sequence?
**A.** 7.62

**Q.** With VTDFKGKTV as the sequence, how does the pKd [5, 23] read?
**A.** ≤ 4.69

**Q.** How did the pKd [1, 17] turn out when MWLSYFVASF was run?
**A.** 7.41

**Q.** What about the pKd [2, 17] of the same sequence?
**A.** 5.62

**Q.** And the pKd [3, 17]?
**A.** 9.59

**Q.** And the pKd [4, 17]?
**A.** 6.85

**Q.** And the pKd [5, 17]?
**A.** 5.94

**Q.** And the pKd [6, 17]?
**A.** 7.81

**Q.** Which results are given for QENPYRTWAY?
**A.** pKd [12, 18]: 5.80; pKd [13, 18]: 8.05; pKd [14, 18]: 8.12

**Q.** How did the pKd [7, 24] turn out when LPEEQDQNY was run?
**A.** 5.82

**Q.** How did the pKd [1, 17] turn out when STSQKSIVAY was run?
**A.** 7.35

**Q.** And the pKd [2, 17]?
**A.** 7.77

**Q.** And the pKd [3, 17]?
**A.** ≤ 4.15

**Q.** What about the pKd [4, 17] of the same sequence?
**A.** 6.10

**Q.** What about the pKd [5, 17] of the same sequence?
**A.** 6.27

**Q.** What about the pKd [6, 17] of the same sequence?
**A.** ≤ 4.15

**Q.** LTLTAAVLML was tested. Which pKd [5, 19] did it give?
**A.** 5.21

**Q.** VEIALYQPI was tested. Which pKd [1, 27] did it give?
**A.** ≤ 4.10

**Q.** And the pKd [2, 27]?
**A.** ≤ 4.40

**Q.** What about the pKd [3, 27] of the same sequence?
**A.** 5.83

**Q.** And the pKd [4, 27]?
**A.** ≤ 4.11

**Q.** What about the pKd [5, 27] of the same sequence?
**A.** ≤ 4.11

**Q.** And the pKd [6, 27]?
**A.** ≤ 4.42

**Q.** ITEAELTGY was tested. Which pKd [2, 23] did it give?
**A.** 8.02

**Q.** What about the pKd [4, 23] of the same sequence?
**A.** 5.08

**Q.** With WEPSKGWKNW as the sequence, how does the pKd [14, 18] read?
**A.** 6.82

**Q.** With VTTLGLPFY as the sequence, how does the pKd [11] read?
**A.** 4.89

**Q.** With EVSTAIAAL as the sequence, how does the pKd [11] read?
**A.** 7.91
